# Reference: patent US20140206011A1
# Legend:
# [1] = target: E-cadherin (human) (UniProt P12830); test: cell-based or functional assay
# [2] = target: FadA on wild-type Fusobacterium nucleatum 12230 (Fusobacterium nucleatum); test: cell-based or functional assay
# UniProt P12830, sequence (P12830 155-882): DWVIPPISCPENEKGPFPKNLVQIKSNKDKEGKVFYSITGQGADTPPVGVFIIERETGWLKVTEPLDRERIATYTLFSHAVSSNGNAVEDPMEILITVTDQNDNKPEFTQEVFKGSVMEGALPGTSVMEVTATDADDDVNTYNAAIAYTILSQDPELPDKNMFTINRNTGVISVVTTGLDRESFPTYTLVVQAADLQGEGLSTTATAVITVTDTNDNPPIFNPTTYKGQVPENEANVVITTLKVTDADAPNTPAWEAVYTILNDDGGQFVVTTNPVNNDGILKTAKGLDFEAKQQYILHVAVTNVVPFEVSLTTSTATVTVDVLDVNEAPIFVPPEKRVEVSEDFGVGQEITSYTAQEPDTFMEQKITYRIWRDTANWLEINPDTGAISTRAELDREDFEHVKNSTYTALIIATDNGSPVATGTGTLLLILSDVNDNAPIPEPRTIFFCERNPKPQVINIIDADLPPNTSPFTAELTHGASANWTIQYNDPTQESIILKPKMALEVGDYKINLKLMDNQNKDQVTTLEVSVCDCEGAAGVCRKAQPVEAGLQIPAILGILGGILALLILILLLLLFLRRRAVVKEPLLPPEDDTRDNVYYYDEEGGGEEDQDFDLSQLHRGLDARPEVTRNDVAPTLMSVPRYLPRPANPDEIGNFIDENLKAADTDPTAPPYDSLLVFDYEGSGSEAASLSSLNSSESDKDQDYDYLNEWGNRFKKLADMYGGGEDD
substance,measurement,setting,value
FadA on wild-type Fusobacterium nucleatum 12230,"attachment level of Fn to HCT116 (percent bacteria recovered relative to inoculum), FIG. 3C without inhibition",[1],4.4%
same,"attachment level of Fn to HCT116 without inhibition, FIG. 4B",[1],6.3%
same,"attachment level of Fn to HCT116 without inhibition, FIG. 4C",[1],5.9%
same,"invasion level of Fn into HCT116 (percent bacteria recovered relative to inoculum), FIG. 3C without inhibition",[1],1.3%
same,"invasion level of Fn into HCT116 without inhibition, FIG. 4B",[1],1.6%
same,"invasion level of Fn into HCT116 without inhibition, FIG. 4C",[1],1.4%
FadAc,HCT116 cell growth (cell proliferation assay),[1],1 mg/mL
same,HCT116 xenograft tumor growth in nude mice,[1],20%
GST-EC5 fusion protein (from UniProt P12830 594-697),inhibition of Fn attachment and invasion of HCT116,[2],0.1 µM
